This note sets out measurements from paper PMC5342555, “ATAD2 is an epigenetic reader of newly synthesized histone marks during DNA replication” (Oncotarget, 2016).

The target in the test is H4K12ac-TAMRA peptide. In words: fluorescence polarisation. The note with it: 8 nM H4K12ac-TAMRA peptide; value read at the highest BD mut concentration shown, est. about 500-600 nM; parent: est. 80; read off a plot.

ATAD2^342-1390 WT, sequence (Q6PL18 342-1390 V1013A/Y1021A/I1074A, change not shown): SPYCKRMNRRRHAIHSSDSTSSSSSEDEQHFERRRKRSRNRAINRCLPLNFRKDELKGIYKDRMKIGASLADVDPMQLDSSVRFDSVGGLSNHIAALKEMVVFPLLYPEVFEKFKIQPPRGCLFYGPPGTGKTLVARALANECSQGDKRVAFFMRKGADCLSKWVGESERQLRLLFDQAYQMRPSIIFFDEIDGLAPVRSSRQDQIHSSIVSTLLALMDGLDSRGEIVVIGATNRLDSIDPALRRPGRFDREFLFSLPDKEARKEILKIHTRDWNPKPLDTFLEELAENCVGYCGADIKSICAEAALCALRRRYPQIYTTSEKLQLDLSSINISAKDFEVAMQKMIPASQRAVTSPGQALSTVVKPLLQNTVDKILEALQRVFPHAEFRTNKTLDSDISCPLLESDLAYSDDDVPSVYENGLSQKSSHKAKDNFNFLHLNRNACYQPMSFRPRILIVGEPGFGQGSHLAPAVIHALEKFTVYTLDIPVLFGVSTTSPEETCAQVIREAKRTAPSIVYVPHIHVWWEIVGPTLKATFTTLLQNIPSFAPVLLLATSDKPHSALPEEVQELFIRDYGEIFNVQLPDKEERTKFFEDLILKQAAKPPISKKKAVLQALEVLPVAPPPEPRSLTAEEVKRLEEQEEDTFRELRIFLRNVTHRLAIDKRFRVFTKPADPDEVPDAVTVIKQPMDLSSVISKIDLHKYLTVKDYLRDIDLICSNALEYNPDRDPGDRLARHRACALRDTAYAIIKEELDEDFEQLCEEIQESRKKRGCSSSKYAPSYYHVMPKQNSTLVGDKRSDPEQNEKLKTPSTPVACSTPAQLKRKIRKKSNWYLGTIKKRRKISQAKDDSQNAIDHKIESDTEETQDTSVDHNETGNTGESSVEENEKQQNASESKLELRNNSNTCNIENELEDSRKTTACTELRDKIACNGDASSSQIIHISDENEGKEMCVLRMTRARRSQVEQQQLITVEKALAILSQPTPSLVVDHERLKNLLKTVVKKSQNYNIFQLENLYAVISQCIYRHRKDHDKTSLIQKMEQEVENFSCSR

Turning to “ATAD2^342-1390 WT (from UniProt Q6PL18) BD mut”, the response worked out at 14 mP.
